Substitutions are numbered along the chain they refer to.
T1: FcγRIIa(H) extracellular domain, C-terminal His tag (human, UniProt P12318 34-217)
T1 construct: extracellular domain; Allotype H131; also called 2aH
T1 sequence: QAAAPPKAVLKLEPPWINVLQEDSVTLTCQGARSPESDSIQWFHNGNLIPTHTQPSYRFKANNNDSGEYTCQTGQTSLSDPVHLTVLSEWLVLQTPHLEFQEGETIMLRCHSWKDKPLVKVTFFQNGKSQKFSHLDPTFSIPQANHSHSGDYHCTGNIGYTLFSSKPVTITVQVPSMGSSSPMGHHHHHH

T2: FcγRIIa(R) extracellular domain, C-terminal His tag (human, UniProt P12318 34-217)
T2 construct: extracellular domain; Allotype R131; also called 2aR
T2 sequence: T1 sequence with H134R

T3: FcγRIIb extracellular domain, C-terminal His tag (human, UniProt P31994 43-217)
T3 construct: extracellular domain; also called 2b
T3 sequence: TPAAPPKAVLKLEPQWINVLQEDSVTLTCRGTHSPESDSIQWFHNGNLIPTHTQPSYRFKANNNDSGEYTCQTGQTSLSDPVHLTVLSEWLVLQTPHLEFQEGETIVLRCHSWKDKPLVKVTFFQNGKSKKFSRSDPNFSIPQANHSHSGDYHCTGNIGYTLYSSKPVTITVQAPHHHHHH

B1: GpH7-A5/GpH7-B3 variant I332_19Q/GpL16-k0 (antibody, human IgG1, kappa)
heavy 1: not shown
heavy 2: not shown
light: DIVMTQSPLSLPVTPGEPASISCQASESLVHSNRNTYLHWYLQKPGQSPQLLIYKVSNRFSGVPDRFSGSGSGTDFTLKISRVEAEDVGVYYCSQNTHVPPTFGQGTKVEIERTVAAPSVFIFPPSDEQLKSGTASVVCLLNNFYPREAKVQWKVDNALQSGNSQESVTEQDSKDSTYSLSSTLTLSKADYEKHKVYACEVTHQGLSSPVTKSFNRGEC
notes: He Ab: anti-glypican 3 IgG1 heterodimer, only the GpH7-B3 chain mutated; position in EU numbering; also called He Ab
B2: GpH7-A5/GpH7-B3 variant K326_01G/GpL16-k0 (antibody, human IgG1, kappa)
heavy 1: not shown
heavy 2: not shown
light: B1 light
notes: as for B1
B3: GpH7-A5/GpH7-B3 variant K326_02A/GpL16-k0 (antibody, human IgG1, kappa)
heavy 1: not shown
heavy 2: not shown
light: B1 light
notes: as for B1
B4: GpH7-A5/GpH7-B3 variant K326_03V/GpL16-k0 (antibody, human IgG1, kappa)
heavy 1: not shown
heavy 2: not shown
light: B1 light
notes: as for B1
B5: GpH7-A5/GpH7-B3 variant K326_04F/GpL16-k0 (antibody, human IgG1, kappa)
heavy 1: not shown
heavy 2: not shown
light: B1 light
notes: as for B1
B6: GpH7-A5/GpH7-B3 variant K326_05P/GpL16-k0 (antibody, human IgG1, kappa)
heavy 1: not shown
heavy 2: not shown
light: B1 light
notes: as for B1
B7: GpH7-A5/GpH7-B3 variant K326_06M/GpL16-k0 (antibody, human IgG1, kappa)
heavy 1: not shown
heavy 2: not shown
light: B1 light
notes: as for B1
B8: GpH7-A5/GpH7-B3 variant K326_07I/GpL16-k0 (antibody, human IgG1, kappa)
heavy 1: not shown
heavy 2: not shown
light: B1 light
notes: as for B1
B9: GpH7-A5/GpH7-B3 variant K326_08L/GpL16-k0 (antibody, human IgG1, kappa)
heavy 1: not shown
heavy 2: not shown
light: B1 light
notes: as for B1
B10: GpH7-A5/GpH7-B3 variant K326_09D/GpL16-k0 (antibody, human IgG1, kappa)
heavy 1: not shown
heavy 2: not shown
light: B1 light
notes: as for B1
B11: GpH7-A5/GpH7-B3 variant K326_10E/GpL16-k0 (antibody, human IgG1, kappa)
heavy 1: not shown
heavy 2: not shown
light: B1 light
notes: as for B1
B12: GpH7-A5/GpH7-B3 variant K326_12R/GpL16-k0 (antibody, human IgG1, kappa)
heavy 1: not shown
heavy 2: not shown
light: B1 light
notes: as for B1
B13: GpH7-A5/GpH7-B3 variant K326_13S/GpL16-k0 (antibody, human IgG1, kappa)
heavy 1: not shown
heavy 2: not shown
light: B1 light
notes: as for B1
B14: GpH7-A5/GpH7-B3 variant K326_14T/GpL16-k0 (antibody, human IgG1, kappa)
heavy 1: not shown
heavy 2: not shown
light: B1 light
notes: as for B1
B15: GpH7-A5/GpH7-B3 variant K326_15Y/GpL16-k0 (antibody, human IgG1, kappa)
heavy 1: not shown
heavy 2: not shown
light: B1 light
notes: as for B1

Target: T1, FcγRIIa(H) extracellular domain, …
Assay: SPR (Biacore); binding relative to GpH7-A5/GpH7-B3/GpL16-k0 x100;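 further: antibodies captured on a chip surface, soluble FcγR flowed over in HBS-EP+ running buffer at 25 °C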
Description: (§1) The antibody of interest was analyzed for its interaction with FcγR using a BiaCore™ T100, BiaCore™ A100, or BiaCore™ 4000 surface plasmon resonance system (GE Healthcare Japan Corp.). The running buffer used was HBS-EP+ (GE Healthcare Japan Corp.). The assay temperature was set to 25° C. The sensor chips used were: a chip prepared by immobilizing antigenic peptides onto Series S Sensor Chip CM5 (GE Healthcare Japan Corp.) by the amine coupling method; a chip prepared by immobilizing antigenic peptides biotinylated in advance onto Series S Sensor Chip SA (certified) (GE Healthcare Japan Corp.) through their interaction; a chip prepared by immobilizing protein L (ACTIGEN, BioVision, Inc.) onto Series S Sensor Chip CM5 (GE Healthcare Japan Corp.); and a chip prepared by immobilizing protein A/G (Thermo Fisher Scientific K.K.) onto Series S Sensor Chip CM5 (GE Healthcare Japan Corp.). The antibody of interest was captured onto any of these chips and allowed to interact with FcγR diluted with a running buffer. The antibody captured on the chip was washed off through the reaction of 10 mM glycine-HCl (pH 1.5) to regenerate the chip, which was repetitively used.

Row | Binder | He/Con 2aH [%]
1 | B1 | 112
2 | B2 | 105
3 | B3 | 110
4 | B4 | 101
5 | B5 | 101
6 | B6 | 103
7 | B7 | 108
8 | B8 | 104
9 | B9 | 96.5
10 | B10 | 115
11 | B11 | 106
12 | B12 | 105
13 | B13 | 110
14 | B14 | 119
15 | B15 | 102

Target: T2, FcγRIIa(R) extracellular domain, …
Assay: as above
Description: as §1

Row | Binder | He/Con 2aR [%]
16 | B1 | 95.1
17 | B2 | 108
18 | B3 | 125
19 | B4 | 135
20 | B5 | 129
21 | B6 | 118
22 | B7 | 132
23 | B8 | 141
24 | B9 | 131
25 | B10 | 142
26 | B11 | 142
27 | B12 | 98.6
28 | B13 | 119
29 | B14 | 128
30 | B15 | 131

Target: T4, FcγRIIIa extracellular domain, C-terminal His tag (human, UniProt P08637 17-208)
T4 construct: extracellular domain; also called 3a
T4 sequence (P08637 other isoform, or with tags, fused parts or gaps): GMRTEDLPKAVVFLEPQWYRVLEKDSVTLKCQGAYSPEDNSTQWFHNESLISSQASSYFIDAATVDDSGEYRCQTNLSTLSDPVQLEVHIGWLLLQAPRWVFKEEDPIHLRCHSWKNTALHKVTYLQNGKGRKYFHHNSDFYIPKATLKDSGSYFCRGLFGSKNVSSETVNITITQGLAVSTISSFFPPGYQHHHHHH
Assay: as above
Description: as §1

Row | Binder | He/Con 3a [%]
31 | B1 | 101
32 | B2 | 114
33 | B3 | 130
34 | B4 | 135
35 | B5 | 114
36 | B6 | 117
37 | B7 | 127
38 | B8 | 153
39 | B9 | 126
40 | B10 | 148
41 | B11 | 138
42 | B12 | 101
43 | B13 | 118
44 | B14 | 140
45 | B15 | 124

Target: T5, FcγRIa extracellular domain, C-terminal His tag (human, UniProt P12314 16-292)
T5 construct: extracellular domain; also called 1a
T5 sequence (P12314 other isoform, or with tags, fused parts or gaps): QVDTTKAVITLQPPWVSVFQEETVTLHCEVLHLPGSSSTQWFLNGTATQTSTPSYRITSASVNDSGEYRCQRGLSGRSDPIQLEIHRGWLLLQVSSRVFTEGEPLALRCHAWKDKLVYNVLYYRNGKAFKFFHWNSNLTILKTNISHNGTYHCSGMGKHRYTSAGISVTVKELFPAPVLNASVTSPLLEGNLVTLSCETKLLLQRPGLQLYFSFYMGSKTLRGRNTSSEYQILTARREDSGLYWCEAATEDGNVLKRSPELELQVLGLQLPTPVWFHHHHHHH
Assay: as above
Description: as §1

Row | Binder | He/Con 1a [%]
46 | B1 | 103
47 | B2 | 106
48 | B3 | 107
49 | B4 | 107
50 | B5 | 107
51 | B6 | 106
52 | B7 | 108
53 | B8 | 106
54 | B9 | 105
55 | B10 | 109
56 | B11 | 109
57 | B12 | 105
58 | B13 | 106
59 | B14 | 109
60 | B15 | 111

Target: T3, FcγRIIb extracellular domain, …
Assay: as above
Description: as §1

Row | Binder | He/Con 2b [%]
61 | B1 | 104
62 | B2 | 119
63 | B3 | 156
64 | B4 | 196
65 | B5 | 174
66 | B6 | 141
67 | B7 | 185
68 | B8 | 223
69 | B9 | 198
70 | B10 | 216
71 | B11 | 224
72 | B12 | 100
73 | B13 | 139
74 | B14 | 168
75 | B15 | 179

From patent US20260167699A1 (Chugai, published 2026)
